PMC2873192 (Journal of the American Chemical Society, 2009)

Biological target: T1, integrin-linked kinase (ILK) ankyrin repeat domain (ARD) (UniProt Q13418 1-171)
T1 sequence: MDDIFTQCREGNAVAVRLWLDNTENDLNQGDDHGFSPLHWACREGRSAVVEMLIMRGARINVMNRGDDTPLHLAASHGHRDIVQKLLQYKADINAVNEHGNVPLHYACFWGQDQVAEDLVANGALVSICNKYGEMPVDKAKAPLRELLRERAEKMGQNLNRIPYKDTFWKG
Assay: ITC

Kd: ~68 nM
B1: PINCH LIM1 domain (domain or fragment)
chain: MANALASATCERCKGGFAPAEKIVNSNGELYHEQCFVCAQCFQQFPEGLFYEFEGRKYCEHDFQMLFAPC
